Reference: patent WO2013005649A1 (dated 2013)
Residue numbers refer to the chain shown, from its start. Non-standard residues stand in square brackets, D forms with d. No end group written: not given here. sY = N[C@@H](Cc1ccc(OS(=O)(=O)O)cc1)C(=O)O

Columns and labels:
[1] = molecular target: T1, cynomolgus monkey CCR6 (isoform 1, 177Val type) with C-terminal His tag, on CHO-cynomolgus CCR6 cells (cynomolgus monkey, UniProt P51684 1-374 (human entry)); experiment: flow cytometry on CHO-cynomolgus CCR6 cells
T1 construct: also called mfCCR6
T1 chain: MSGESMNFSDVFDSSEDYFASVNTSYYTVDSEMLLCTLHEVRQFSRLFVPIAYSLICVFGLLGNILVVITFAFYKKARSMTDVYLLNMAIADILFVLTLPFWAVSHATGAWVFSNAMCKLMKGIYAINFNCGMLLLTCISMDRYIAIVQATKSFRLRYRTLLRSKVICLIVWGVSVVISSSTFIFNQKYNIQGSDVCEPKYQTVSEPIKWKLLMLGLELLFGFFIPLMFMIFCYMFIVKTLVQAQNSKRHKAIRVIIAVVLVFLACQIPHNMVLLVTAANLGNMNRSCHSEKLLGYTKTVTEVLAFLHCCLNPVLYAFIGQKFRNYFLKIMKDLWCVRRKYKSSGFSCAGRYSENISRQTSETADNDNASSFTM

[2] = molecular target: T2, human CCR6 with C-terminal His tag, on CHO-hCCR6 (isoform1) or U937-CCR6 cells (human, UniProt P51684 1-374); experiment: flow cytometry on CHO-hCCR6 cells
T2 construct: Expressed from pKANTEX-hCCR6 (isoform1) in CHO/DG44 cells (CHO-hCCR6) and in U937 cells (U937-CCR6); also called hCCR6-His-tag
T2 sequence: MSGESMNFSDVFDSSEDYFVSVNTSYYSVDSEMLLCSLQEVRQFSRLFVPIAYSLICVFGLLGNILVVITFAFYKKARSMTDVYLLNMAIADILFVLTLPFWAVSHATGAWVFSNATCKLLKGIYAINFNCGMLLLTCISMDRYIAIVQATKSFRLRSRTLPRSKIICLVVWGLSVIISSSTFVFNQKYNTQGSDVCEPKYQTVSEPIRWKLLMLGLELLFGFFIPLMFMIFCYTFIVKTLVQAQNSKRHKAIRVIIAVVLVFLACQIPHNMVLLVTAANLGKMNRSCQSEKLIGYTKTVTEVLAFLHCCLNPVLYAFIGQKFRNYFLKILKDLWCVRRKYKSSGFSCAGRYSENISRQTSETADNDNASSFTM

[3] = molecular target: T3, synthetic peptide CCR6-2 (9th to 23rd amino acids of human CCR6) (human, not fully specified); experiment: binding ELISA on coated peptide
T3 construct: Not sulfated; also called CCR6-2 peptide; P3: CCR6-2(B)
T3 peptide: CSDVFDSSEDYFVSVN

[4] = molecular target: T4, synthetic peptide CCR6-2S (9th to 23rd amino acids of human CCR6, Tyr18-sulfation) (human); experiment: binding ELISA on coated peptide
T4 construct: also called CCR6-2S peptide; P2: CCR6-2S(B)
T4 peptide: CSDVFDSSED[sY]FVSVN

[5] = molecular target: T5, synthetic peptide CCR6-1 (1st to 17th amino acids of human CCR6) (human, also: 11 PEG units at the C-terminal side); experiment: binding ELISA on coated peptide
T5 construct: also called CCR6-1 peptide
T5 peptide: MSGESMNFSDVFDSSEDC

[6] = molecular target: T2, human CCR6 with C-terminal His tag, on …; experiment: flow cytometry on CHO-hCCR6 cells, 0.0001 to 10 μg/mL antibody
[7] = molecular target: T6, human CCR6 N-terminal extracellular domain Fc fusion protein NthCCR6-IgG4Fc (human, contains a sulfated Tyr residue; N-linked sugar chains); experiment: SPR, Biacore T100; NthCCR6-IgG4Fc captured on anti-human IgG CM5 chip, antibody injected
T6 construct: Made in CHO/DG44 cells; also called NthCCR6-Fc; NtCCR6-IgG4Fc

[8] = molecular target: T1, cynomolgus monkey CCR6 (isoform 1, …); experiment: flow cytometry on CHO-cynomolgus CCR6 cells, 0.0001 to 10 μg/mL antibody
[9] = molecular target: T7, synthetic peptide CCR6-3 (20th to 34th amino acids of human CCR6) (human, Cys residue introduced at the N-terminal or C-terminal side); experiment: binding ELISA on coated peptide
T7 construct: also called CCR6-3 peptide
T7 peptide: CVSVNTSYYSVDSEML

[10] = molecular target: T8, synthetic peptide CCR6-4 (30th to 46th amino acids of human CCR6) (human, also: 11 PEG units at the N-terminal side); experiment: binding ELISA on coated peptide
T8 construct: also called CCR6-4 peptide
T8 peptide: DSEMLLSSLQEVRQFSRC

[11] = molecular target: T3, synthetic peptide CCR6-2 (9th to 23rd …); experiment: binding ELISA on coated peptide, 10 μg/mL antibody
[12] = molecular target: T4, synthetic peptide CCR6-2S (9th to 23rd …); experiment: binding ELISA on coated peptide, 10 μg/mL antibody
[13] = molecular target: T5, synthetic peptide CCR6-1 (1st to 17th …); experiment: binding ELISA on coated peptide, 10 μg/mL antibody

T6 sequence (chain, as listed by the source limits assumed): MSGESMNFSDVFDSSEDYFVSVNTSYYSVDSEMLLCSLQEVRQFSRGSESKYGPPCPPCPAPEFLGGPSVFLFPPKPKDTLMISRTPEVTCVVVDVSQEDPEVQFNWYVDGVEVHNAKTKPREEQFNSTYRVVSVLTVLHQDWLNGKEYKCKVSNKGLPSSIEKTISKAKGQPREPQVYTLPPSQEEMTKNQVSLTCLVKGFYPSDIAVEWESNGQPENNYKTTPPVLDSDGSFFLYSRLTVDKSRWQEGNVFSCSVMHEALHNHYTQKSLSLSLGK

B1: anti-human CCR6 chimeric antibody KM4705 chimera (antibody, human IgG1, V domains shown)
VH: EVQLVETGGGLVQPKGSLKLSCAASGFSFKTNAMNWVRQAPGKGLEWVARIRSKINNYATYYADSVKDRFTISRDDSQSMLYLQMNNLKTEDTAMYYCVSDHYGYGAVDYWGQGTSVTVSS
VL: DIQMNQSPSSLSASLGDTITITCRASQNINIWLSWYQQKPGSIPKLLIYKASNLHTGVSSRFSGSGYGTDFTLTISSLQPEDIATYYCLQGRSYPLTFGGGTNLEIK
**Q.** Which results are given for B1?
**A.** binding result [1]: binds; binding result [2]: binds; binding result [3]: binds; binding result [4]: binds; binding result [5]: binds

B2: anti-human CCR6 chimeric antibody KM4592 chimera (antibody, human IgG1, V domains shown)
VH: DVQLVESGGGLVQPGGSRKLSCAASGFTFSSFGMHWVRQAPEKGLEWVAYISTGSGSIYYADTVKGRFTISRDNPKNTLFLQMTSLRSEDTAIYYCLKGGDGYYVAAWFAYWGQGTLVTVSA
VL: DIVLTQAAPSVSVTPGESVSISCRSSKSLLHTNDNTYLYWFLQRPGQSPQLLIYRMSNLASGVPDRFSGSGSGTAFTLRISRVEAEDVGVYYCMQHLEYPLTFGAGTKLELK
**Q.** Does B2 bind [1]?
**A.** binds

**Q.** Does B2 bind [2]?
**A.** binds

**Q.** Does B2 bind [5]?
**A.** no binding

B3: anti-human CCR6 chimeric antibody KM4703 chimera (antibody, human IgG1, V domains shown)
VH: QVQMKETGPGLVQPTQTLSLTCTVSGFSLTSSRVHWVRQPPGKGLEWMGVIYYDGKTDYNATLKSRLSISRDTSKSQVFLKINSLQTDDTAMYYCAGGVIMDAWGQGASVTVSP
VL: DVLMTQIPVSLPVSLGGQVAISCRSSQSLVHTDGNTYLHWYLQKPGQSPQLLIYRVSNRFSGVPDRFSGSGSGTDFTLKISRVEPEDLGVYYCSQRTYFPLTFGSGTKLEIK
**Q.** Does B3 bind [1]?
**A.** binds

**Q.** Does B3 bind [2]?
**A.** binds

**Q.** Does B3 bind [5]?
**A.** no binding

B4: anti-human CCR6 chimeric antibody KM4704 chimera (antibody, human IgG1, V domains shown)
VH: EVQLQESGPGLVKPSQSLSLTCSVTGYSITSNYWGWIRKFPGNKMEWMGYTSSSGSTSYNPYLKSRISITRDTSKNQFFLKLNSVTTEDTATYYCTGGYVMDAWGQGASVTVSS
VL: B3 VL with I7T, A20S, T32S, S94L, F99V, L101W, S105G, E110D, I111L
**Q.** Does B4 bind [1]?
**A.** binds

**Q.** Does B4 bind [2]?
**A.** binds

**Q.** Does B4 bind [5]?
**A.** no binding

B5: anti-human CCR6 mouse monoclonal antibody KM4592 (antibody, V domains shown)
VH: B2 VH
VL: B2 VL
**Q.** Which results are given for B5?
**A.** binding result [6]: binds; Kd [7]: 0.38 nM; binding result [8]: binds; binding result [9]: no binding (tested: 10 μg/mL); binding result [10]: no binding (tested: 10 μg/mL); binding result [5]: no binding (tested: 10 μg/mL)

B6: anti-human CCR6 rat monoclonal antibody KM4703 (antibody, rat IgG2b, V domains shown)
VH: B3 VH
VL: B3 VL
**Q.** Which results are given for B6?
**A.** binding result [6]: binds; Kd [7]: 1.15 nM; binding result [8]: binds; binding result [9]: no binding (tested: 10 μg/mL); binding result [10]: no binding (tested: 10 μg/mL); binding result [5]: no binding (tested: 10 μg/mL)

B7: anti-human CCR6 rat monoclonal antibody KM4704 (antibody, rat IgG2b, V domains shown)
VH: B4 VH
VL: B3 VL with I7T, A20S, T32S, S94L, F99V, L101W, S105G, E110D, I111L
**Q.** Which results are given for B7?
**A.** binding result [6]: binds; Kd [7]: 0.67 nM; binding result [8]: binds; binding result [9]: no binding (tested: 10 μg/mL); binding result [10]: no binding (tested: 10 μg/mL); binding result [5]: no binding (tested: 10 μg/mL)

B8: anti-human CCR6 mouse monoclonal antibody KM4705 (antibody, mouse IgG2b, V domains shown)
VH: B1 VH
VL: B1 VL
**Q.** Does B8 bind [6]?
**A.** binds

**Q.** What about the Kd [7] of the same binder?
**A.** 6.52 nM

**Q.** Does B8 bind [8]?
**A.** binds

**Q.** Does B8 bind [11]?
**A.** binds

**Q.** Does B8 bind [12]?
**A.** binds

**Q.** Does B8 bind [13]?
**A.** binds

**Q.** Does B8 bind [9]?
**A.** no binding (tested: 10 μg/mL)

**Q.** Does B8 bind [10]?
**A.** no binding (tested: 10 μg/mL)
